Measurements as given in US20130136748A1 (Ablynx, published 2013).
Where “and” joins values, the source holds several entries; their conditions need not be identical. Equal entries are not always repeated. Where two headings read alike, the source gives them in different places.

How the values were obtained:
[1] = molecular target: T1, human HER1 (human, UniProt P00533 25-1210); assay: FACS CHO-HER1, 667 nM
T1 construct: also called EGFR; ErbB1

[2] = molecular target: T2, hHER3 ECD (human HER3 extracellular domain) (human, UniProt P21860 20-643); assay: ELISA, coated hHER3-ECD
T2 construct: also called recombinant HER3-ECD

[3] = molecular target: T1, human HER1; assay: FACS, CHO-HER1
[4] = molecular target: T3, Chimeric chicken Her3-human domain 2 (AA207-328 human) (chicken/human chimera); assay: FACS, HEK293 with chimeric HER3
T3 construct: Transmembrane and extracellular regions, on HEK293 cells
T3 chain: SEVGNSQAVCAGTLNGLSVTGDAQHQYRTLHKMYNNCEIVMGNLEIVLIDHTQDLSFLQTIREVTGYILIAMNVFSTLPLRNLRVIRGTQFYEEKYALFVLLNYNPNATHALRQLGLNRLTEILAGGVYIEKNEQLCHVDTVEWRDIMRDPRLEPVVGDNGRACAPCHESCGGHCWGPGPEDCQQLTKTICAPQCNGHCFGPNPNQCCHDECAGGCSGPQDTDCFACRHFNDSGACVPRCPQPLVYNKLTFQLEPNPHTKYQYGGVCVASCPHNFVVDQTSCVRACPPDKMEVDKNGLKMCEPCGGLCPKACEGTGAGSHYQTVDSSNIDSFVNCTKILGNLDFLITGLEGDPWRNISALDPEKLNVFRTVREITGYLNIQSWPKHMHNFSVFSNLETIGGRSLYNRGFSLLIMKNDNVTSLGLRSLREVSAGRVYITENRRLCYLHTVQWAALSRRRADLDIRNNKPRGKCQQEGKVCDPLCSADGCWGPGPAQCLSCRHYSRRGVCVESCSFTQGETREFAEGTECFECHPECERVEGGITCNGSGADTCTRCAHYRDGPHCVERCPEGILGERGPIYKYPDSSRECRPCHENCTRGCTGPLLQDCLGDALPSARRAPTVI

[5] = molecular target: T1, human HER1; assay: FACS CHO-HER1, 222 nM
[6] = molecular target: T4, human HER2 (human, UniProt P04626 23-1255); assay: FACS CHO-HER2, 2000 nM
T4 construct: also called hHER2

[7] = molecular target: T5, hHER3 full length (human, UniProt P21860 20-1342); assay: FACS, 400 nM, competitor 17C08-biotin
T5 construct: On transfected CHO, CHO HER2/HER3, CHO EGFR/HER3 or CHO Flp-In cells; endogenous HER3 of MCF-7 and MDA-MB468 cells in the signalling assays; also called human HER3

[8] = molecular target: T6, human HER3-Fc (R&D Systems, 348-RB) (human, UniProt P21860 20-643); assay: SPR, HER3-Fc captured by anti-Fc
T6 construct: Bought; also called hHER3-Fc; Fc-HER3; Fc part of the bought chimera not given, not described

[9] = molecular target: T5, hHER3 full length; assay: FACS, 400 nM, competitor 04C07-biotin
[10] = molecular target: T4, human HER2; assay: FACS CHO-HER2, 667 nM
[11] = molecular target: T5, hHER3 full length; assay: FACS, 400 nM, competitor 04F10-biotin
[12] = molecular target: T1, human HER1; assay: FACS CHO-HER1, 2000 nM
[13] = molecular target: T7, human HER4 (human, UniProt Q15303 26-1308); assay: FACS, CHO-HER4
[14] = molecular target: T5, hHER3 full length; assay: FACS, 400 nM, competitor 18E08-biotin
[15] = molecular target: T7, human HER4; assay: FACS CHO-HER4, 667 nM
[16] = molecular target: T7, human HER4; assay: FACS CHO-HER4, 2000 nM
[17] = molecular target: T7, human HER4; assay: FACS CHO-HER4, 222 nM
[18] = molecular target: T5, hHER3 full length; assay: FACS, 400 nM, competitor 21B02-biotin
[19] = molecular target: T5, hHER3 full length; assay: FACS, 400 nM, competitor 23F05-biotin
[20] = molecular target: T5, hHER3 full length; assay: cell-based or functional assay
[21] = molecular target: T8, cHER3ECD (Maccaca fascicularis HER3 extracellular domain) (Macaca fascicularis, UniProt P21860 20-643 (human entry)); assay: ELISA, coated cHER3-ECD
T8 construct: also called cyno HER3ECD; cyno HER3-ECD
T8 chain: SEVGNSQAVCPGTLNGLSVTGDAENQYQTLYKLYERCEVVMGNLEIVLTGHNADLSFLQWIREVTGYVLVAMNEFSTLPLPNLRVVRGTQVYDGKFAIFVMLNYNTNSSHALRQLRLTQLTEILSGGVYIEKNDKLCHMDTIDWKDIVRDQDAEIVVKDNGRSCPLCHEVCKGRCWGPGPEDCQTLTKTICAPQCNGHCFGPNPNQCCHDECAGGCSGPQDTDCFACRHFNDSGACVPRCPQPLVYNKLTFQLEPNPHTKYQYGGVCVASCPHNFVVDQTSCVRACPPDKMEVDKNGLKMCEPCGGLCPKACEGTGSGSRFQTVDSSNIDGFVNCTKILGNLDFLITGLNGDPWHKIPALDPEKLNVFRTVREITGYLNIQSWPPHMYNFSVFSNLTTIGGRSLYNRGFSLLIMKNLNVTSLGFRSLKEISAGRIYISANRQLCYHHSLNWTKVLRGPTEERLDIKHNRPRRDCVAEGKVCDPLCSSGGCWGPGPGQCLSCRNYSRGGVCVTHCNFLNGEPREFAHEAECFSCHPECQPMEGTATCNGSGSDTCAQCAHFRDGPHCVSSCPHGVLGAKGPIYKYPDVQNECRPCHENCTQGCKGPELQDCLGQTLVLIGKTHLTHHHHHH

[22] = molecular target: T5, hHER3 full length; assay: cell-based or functional assay; remark: listed apart in the source
[23] = molecular target: T4, human HER2; assay: FACS CHO-HER2, 222 nM
[24] = molecular target: T4, human HER2; assay: FACS, CHO-HER2
[25] = molecular target: T2, hHER3 ECD (human HER3 extracellular …); assay: SPR off rate on HER3-ECD
[26] = molecular target: T5, hHER3 full length; assay: FACS competition with HRG1-β1-EGF, CHO-HER3
[27] = molecular target: T6, human HER3-Fc (R&D Systems, 348-RB); assay: HRG competition alphascreen
[28] = molecular target: T5, hHER3 full length; assay: cell-based or functional assay; remark: listed apart in the source
[29] = molecular target: T2, hHER3 ECD (human HER3 extracellular …); assay: SPR off rate on HER3-ECD; remark: listed apart in the source
[30] = molecular target: T6, human HER3-Fc (R&D Systems, 348-RB); assay: HRG competition alphascreen; remark: listed apart in the source
[31] = molecular target: T6, human HER3-Fc (R&D Systems, 348-RB); assay: HRG competition alphascreen; remark: listed apart in the source
[32] = molecular target: T5, hHER3 full length; assay: cell-based or functional assay; remark: listed apart in the source

T7 sequence (Q15303 26-1308 limits assumed): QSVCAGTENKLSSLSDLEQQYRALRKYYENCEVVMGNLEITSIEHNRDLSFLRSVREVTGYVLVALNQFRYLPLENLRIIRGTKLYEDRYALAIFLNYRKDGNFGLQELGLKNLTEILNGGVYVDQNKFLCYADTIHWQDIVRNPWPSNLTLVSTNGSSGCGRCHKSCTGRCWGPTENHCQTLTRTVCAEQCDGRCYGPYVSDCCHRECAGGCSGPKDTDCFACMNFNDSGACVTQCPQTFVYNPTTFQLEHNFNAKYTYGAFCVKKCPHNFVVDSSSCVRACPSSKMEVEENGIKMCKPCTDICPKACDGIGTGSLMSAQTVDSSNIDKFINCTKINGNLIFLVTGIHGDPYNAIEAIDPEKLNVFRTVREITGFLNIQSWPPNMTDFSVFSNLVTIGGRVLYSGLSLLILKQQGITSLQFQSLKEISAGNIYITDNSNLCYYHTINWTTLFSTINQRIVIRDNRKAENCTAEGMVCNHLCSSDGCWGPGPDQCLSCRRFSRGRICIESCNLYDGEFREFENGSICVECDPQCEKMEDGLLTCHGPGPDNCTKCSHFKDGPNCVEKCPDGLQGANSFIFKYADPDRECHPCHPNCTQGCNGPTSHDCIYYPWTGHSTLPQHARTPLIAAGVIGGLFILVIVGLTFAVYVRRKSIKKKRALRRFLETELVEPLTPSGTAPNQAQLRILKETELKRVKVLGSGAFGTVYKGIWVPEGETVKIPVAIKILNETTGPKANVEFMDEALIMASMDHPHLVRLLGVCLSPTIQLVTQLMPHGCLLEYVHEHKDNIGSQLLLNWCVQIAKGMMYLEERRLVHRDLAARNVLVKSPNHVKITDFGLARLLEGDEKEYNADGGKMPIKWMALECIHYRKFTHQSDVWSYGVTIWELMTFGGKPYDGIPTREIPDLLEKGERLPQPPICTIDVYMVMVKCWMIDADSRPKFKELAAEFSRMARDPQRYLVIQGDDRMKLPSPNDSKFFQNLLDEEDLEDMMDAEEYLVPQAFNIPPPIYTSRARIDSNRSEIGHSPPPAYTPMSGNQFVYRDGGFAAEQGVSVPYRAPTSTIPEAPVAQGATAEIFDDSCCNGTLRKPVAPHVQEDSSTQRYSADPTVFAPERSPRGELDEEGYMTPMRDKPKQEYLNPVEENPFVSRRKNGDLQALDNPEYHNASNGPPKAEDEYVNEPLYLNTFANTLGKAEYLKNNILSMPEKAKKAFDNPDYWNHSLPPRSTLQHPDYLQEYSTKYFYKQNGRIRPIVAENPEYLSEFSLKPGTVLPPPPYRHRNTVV

B1: 18E08 (VHH)
VHH: EVQLVESGGGLVQPGGSLRLSCAASGTLFKINAMGWYRQAPGKQRELVALITSSDTTDYAESVEGRFTISRDNTWNAVYLQMNSLKPEDTAVYYCHSDHYSMGVPEKRVIMYGQGTQVTVSS
MCF [1]: 62 | EC50 [2]: 4.7 nM | binding result [3]: no binding (tested: 2000 nM) | binding result [4]: binds | MCF [5]: 61 | MCF [6]: 78 | % competition [7]: 63% | Kd [8]: 53.8 nM | kon [8]: 10400 M⁻¹ s⁻¹ | % competition [9]: 0% | MCF [10]: 52 | % competition [11]: 0% | MCF [12]: 64 | binding result [13]: no binding (tested: 2000 nM) | % competition [14]: 86% | MCF [15]: 80 | MCF [16]: 115 | MCF [17]: 91 | % competition [18]: 4% | % competition [19]: 0% | IC50, HRG1-β1 induced pHER3, MCF-7 [20]: 6.39e-08 M | IC50, HRG1-β1 induced pHER3, MDA-MB468 [20]: 1.01e-07 M | EC50 [21]: 4.4 nM | IC50, HRG1-β1 induced pAkt, MCF-7 [22]: 5.69e-08 M | inhibition of HRG1-β1 induced pERK1/2, MCF-7 [22]: < 50 % inhibition | MCF [23]: 53 | binding result [24]: no binding (tested: 2000 nM)

B2: 17B05 (VHH)
VHH: EVQLVESGGGLVQPGGSLRLSCAASGSIGGLNAMAWYRQAPGKERELVAGIFGVGSTRYADSVKGRFTISRDIAKNTVFLQMNSLNSEDTAVYYCRMSSVTRGSSDYWGQGTQVTVSS
notes: also called HER3MS17B05; HER3MS017B05
MCF [1]: 64 | EC50 [2]: 0.63 nM | binding result [3]: no binding (tested: 2000 nM) | MCF [5]: 85 | koff [25]: 0.00018 s⁻¹ and 0.0002 s⁻¹ | IC50 [26]: 33.4 nM | % inhibition [27]: 87% | IC50 [27]: 0.755 nM | MCF [6]: 134 | % competition [7]: 0% | Kd [8]: 0.11 nM | kon [8]: 390000 M⁻¹ s⁻¹ | % competition [9]: 100% | IC50 pHER3 blocking, HRG stimulated MCF7 [28]: 4.52e-09 M | MCF [10]: 86 | % competition [11]: 68% | MCF [12]: 49 | binding result [13]: no binding (tested: 2000 nM) | % competition [14]: 0% | MCF [15]: 90 | MCF [16]: 116 | koff [29]: 0.00018 s⁻¹ and 0.0002 s⁻¹ | MCF [17]: 142 | % competition [18]: 0% | % competition [19]: 0% | IC50, HRG1-β1 induced pHER3, MCF-7 [20]: 5.34e-09 M | IC50, HRG1-β1 induced pHER3, MDA-MB468 [20]: 2.79e-08 M | EC50 [21]: 0.66 nM | IC50 [30]: 0.78 nM | IC50, HRG1-β1 induced pAkt, MCF-7 [22]: 7.83e-09 M | IC50, HRG1-β1 induced pERK1/2, MCF-7 [22]: 2.36e-09 M | MCF [23]: 84 | IC50 [31]: 0.34 nM and 0.93 nM | binding result [24]: no binding (tested: 2000 nM) | IC50, EGF induced pHER3, CHO EGFR/HER3 [32]: 3.43e-10 M | IC50, TGFα induced pHER3, CHO EGFR/HER3 [32]: 8.15e-10 M | IC50, epiregulin induced pHER3, CHO EGFR/HER3 [32]: 2.48e-10 M
